The source of these data is publication PMC5322387 (2017).

To fix the notation:
B1: E2 L1 L1 lipoyl domain (protein)
chain: HQKVPLPSLSPTMQAGTIARWEKKEGDKINEGDLIAEVETDKATVGFESLEECYMAKILVAEGTRDVPIGAIICITV
B2: E2 L2S L2S didomain (protein)
chain: HMQVLLPALSPTMTMGTVQRWEKKVGEKLSEGDLLAEIETDKATIGFEVQEEGYLAKILVPEGTRDVPLGTPLCIIVEKEADISAFADYRPTEVTDLKPQVPPPTPPPVAAVPPTPQPLAPTPSAPCPATPAGPKGRVFVSPLAKKLAVEKGIDLTQVKGTGPDGRITKKDIDSFV
B3: PDK4 (protein)
chain: not shown
modifications: lipoylated, DANS-As-labeled L2S
B4: E2 L1L2S-ML1 L1L2S tridomain (protein)
chain: HQKVPLPSLSPTMQAGTIARWEKKEGDKINEGDLIAEVETDKATVGFESLEECYMAKILVAEGTRDVPIGAIICITVGKPEDIEAFKNYTLDSSAAPTPQAAPAPTPAATASPPTPSAQAPGSSYPPHMQVLLPALSPTMTMGTVQRWEKKVGEKLSEGDLLAEIETDKATIGFEVQEEGYLAKILVPEGTRDVPLGTPLCIIVEKEADISAFADYRPTEVTDLKPQVPPPTPPPVAAVPPTPQPLAPTPSAPCPATPAGPKGRVFVSPLAKKLAVEKGIDLTQVKGTGPDGRITKKDIDSFV
B5: E2 L1L2S-ML2 L1L2S tridomain (protein)
chain: B4 chain
B6: PDK1 (protein)
chain: not shown
modifications: L2 lipoylation Lys to Ala, lipoylated, DANS-As-labeled
B7: PDK1 (protein)
chain: not shown
modifications: L1 lipoylation Lys to Ala, lipoylated, DANS-As-labeled
B8: PDK1 (protein)
chain: not shown
modifications: lipoylated, DANS-As-labeled L1
B9: PDK3 (protein)
chain: not shown
modifications: lipoylated, DANS-As-labeled L2S
B10: PDK3 (protein)
chain: not shown
modifications: lipoylated, DANS-As-labeled L3S'
B11: PDK1 (protein)
chain: not shown
modifications: lipoylated, DANS-As-labeled L2S
B12: PDK4 (protein)
chain: not shown
modifications: dapoxyl-labeled L3S'
B13: PDK3 (protein)
chain: not shown
modifications: lipoylated, DANS-As-labeled L1
B14: PDK3 (protein)
chain: not shown
modifications: L1 lipoylation Lys to Ala, lipoylated, DANS-As-labeled
B15: PDK4 (protein)
chain: not shown
modifications: lipoylated, DANS-As-labeled L1
B16: PDK4 (protein)
chain: not shown
modifications: L1 lipoylation Lys to Ala, lipoylated, DANS-As-labeled
B17: PDK4 (protein)
chain: not shown
modifications: lipoylated, DANS-As-labeled L3S'
B18: E3BP L3S' L3S' didomain (protein)
chain: PIKILMPSLSPTMEEGNIVKWLKKEGEAVSAGDALCEIETDKAVVTLDASDDGILAKIVVEEGSKNIRLGSLIGLIVEEGEDWKHVEIPKDVGPPPPVSKPSEPRPSPEPQISIPVKKEHIPGTLRFRLSPAARNILEKHSLDASQGTATGPRGIFTKEDALKLV
B19: PDK3 (protein)
chain: not shown
modifications: L2 lipoylation Lys to Ala, lipoylated, DANS-As-labeled
B20: PDK4 (protein)
chain: not shown
modifications: L2 lipoylation Lys to Ala, lipoylated, DANS-As-labeled

Assay [1] deals with T1, PDK2 (Homo sapiens, UniProt Q15119). In words: fluorescence titration.
The target of the assay “E2 L2S L2S didomain” is B2. The assay is described as follows: fluorescence titration.
In assay [2] the target is B5. In words: fluorescence titration.
In assay [3] the target is B4. In words: fluorescence titration.
For the assay “E2 L1 L1 lipoyl domain”, the target named is B1. The assay is described as follows: fluorescence titration.
In assay [4] the target is B18. The assay is described as follows: fluorescence titration (quenching).
Assay [5] deals with B18. In words: fluorescence titration.
For assay [6], the target named is T1, PDK2. The assay is described as follows: fluorescence titration (quenching).

The term Kd denotes the constant that tells how readily two partners part at equilibrium. A low value points to a tighter complex. For the molecule B1, binding with PDK2 [1] was characterised by a dissociation constant (Kd) of 910 nM.
B2 registered a Kd with PDK2 [1] of 1380 nM.
Consider B3, for which, in the assay with E2 L2S L2S didomain, the affinity, expressed as Kd, was 2070 nM.
B4: the Kd with PDK2 [1] worked out at 890 nM.
Take B5: binding with PDK2 [1] was characterised by a dissociation constant (Kd) of 640 nM.
For B6, the affinity in assay [2], expressed as Kd, was 3620 nM.
Regarding B7, binding in assay [3] was characterised by a dissociation constant (Kd) of 2100 nM.
For the molecule B8, the equilibrium dissociation constant (Kd) with E2 L1 L1 lipoyl domain was determined as 4430 nM.
B9 displayed a Kd in the assay with E2 L2S L2S didomain of 1210 nM.
Consider B10, for which, in the assay with E3BP L3S' L3S' didomain [4], the Kd amounted to 103 nM.
B11 registered a Kd with E2 L2S L2S didomain of 17100 nM.
Turning to B12, the affinity with E3BP L3S' L3S' didomain [5], expressed as Kd, was 5.02 µM.
Consider B13, for which the Kd with E2 L1 L1 lipoyl domain worked out at 620 nM.
The molecule B14 gave a Kd in assay [3] of 540 nM.
On to B15, for which, in the assay with E2 L1 L1 lipoyl domain, the Kd worked out at 350 nM.
In turn, B16 registered a dissociation constant Kd in assay [3] of 270 nM.
The molecule B17 had a Kd with E3BP L3S' L3S' didomain [5] of 5.93 µM.
B18: the Kd with PDK2 [6] stood at 25 nM; in the assay with PDK2 [1], 2070 nM.
In assay [2], B19 returned an equilibrium dissociation constant (Kd) of 396 nM.
The same measure, in the same setting: next, B20: 397 nM.
